# Laboratory results published in the RNAGym collection of RNA variant scans (doi:10.7554/elife.90254).
# B1: OR4K15 (parent)
# chain: GUUAACGGUCAUAGGCCAUGGAAACUAGGAGCACCAUUUCGCUGCCAGUGAAGAAAUGAACAAAGAAAAUCUGGGCCAGGCAGGCAUCAAAAGAAAUAGUCUUGCGCUCAACCAGAAAGUCUGUAAUCAUUUUAAGGGUA
# Variants of: B1
# Test: self-cleavage, relative activity (ratio to wild type); higher = more cleavage; in vitro, sequencing; the parent is a self-cleaving ribozyme
row,Variant,self-cleavage
1,A68G A116U,0.21
2,A92U U120C,1
3,A24G A60U,1.08
4,A59G A89U,0.98
5,A111G U120C,0.01
6,U38C A90C,1.62
7,U87A G137A,1.96
8,A63U A126G,1.31
9,A36U A55G,1.4
10,U70A A78G,0.33
11,U87C A111G,0.03
12,A4U U72A,0.28
13,A86G U133C,2.05
14,A4U U108C,0.09
15,A54G C112G,0.01
16,C25U U127C,0.57
17,G14A A18U,0.99
18,C40A A67G,1.7
19,A62G U120G,0.84
20,U39G A64G,1.12
21,U43A A135G,1.91
22,A23G G75A,0.19
23,A33U A55G,1.84
24,U12C A126G,0.55

row,Variant,self-cleavage
1,U49C U139A,1.15
2,A18G G80U,0.14
3,U19C C40U,1.67
4,U49A U87C,0.22
5,A91U A118U,1.23
6,G84C A114G,0.05
7,C34U A52G,0.85
8,A67G A95U,1.41
9,A64G G84C,0.31
10,C35A A129G,1.27
11,U57A A63G,1.7
12,U102C U139A,2.11
13,A66G U102A,0.89
14,A64G A67G,1.27
15,A94G U97A,2.02
16,U57C U102A,0.48
17,A62U A69G,0.81
18,G74A A125G,0.05
19,A62G A116G,0.64
20,C34U A111G,0.04
21,A33U G48A,1.42
22,G21A C85G,0.64
23,A67G U70A,0.72
24,A33U C81U,0.27

row,Variant,self-cleavage
1,A30U A114U,0.11
2,C81A U132C,0.29
3,A63G U87C,1.59
4,A30U U100C,2.08
5,A55U A114U,0.03
6,A24C A125U,2.07
7,A24G A94G,1.47
8,A51G A110G,0.08
9,A96U U122C,1.54
10,C32U C45G,1.23
11,A126C U132G,0.89
12,A23G A67G,1.11
13,A11U A51U,0.87
14,U49A A98C,1.58
15,U102C U122A,1.51
16,U3C A91C,0.84
17,C61U A86G,1.72
18,A5G A27U,0.96
19,U43C G74C,0.23
20,U12C A94G,1.34
21,U100A C105U,0.03
22,A33U U72C,0.3
23,A64G U122A,0.95
24,A5G A24G,1.14

row,Variant,self-cleavage
1,A52G A116G,0.91
2,G74A A117G,0.2
3,U133A,1.32
4,A4U U57C,0.65
5,A22U U97C,0.69
6,U57A A86G,1.09
7,A69C A96U,0.68
8,A126C U130C,0.47
9,U3C C107G,0.09
10,U19A A22G,1.09
11,A51U U131A,1.32
12,A64G U120A,2.01
13,G84U U108C,0.02
14,A66U A117G,1.44
15,A68G U133C,1.87
16,A62G A134U,1.75
17,C121A G137A,1.87
18,A55U A67U,1.6
19,U2A A134G,1.65
20,G14C A55G,1.34
21,C61U,1.8
22,A11U A114U,0.05
23,G21A A60G,1.14
24,A22G A52U,1.02

row,Variant,self-cleavage
1,A4G G106A,0.02
2,U57C A69C,0.84
3,U26C A68G,1.26
4,A54G A111U,0.06
5,U3C U43A,1.31
6,A18U C113A,0.05
7,A92G A96U,1.84
8,G48U U102C,1.31
9,C6U G44A,1.34
10,U9C U127C,1.44
11,A116U,0.23
12,A36C U127C,1.51
13,A30U C77U,1.77
14,U2C G53A,1.18
15,U122C U131C,1.13
16,A92G A94U,2.13
17,G84C U100C,0.27
18,A23G G119A,1.38
19,U38G C113U,0.07
20,U131C U132A,0.94
21,C76A A96G,0.19
22,A69G A78G,0.27
23,U39C A118G,1.71
24,A30G A91G,0.24

row,Variant,self-cleavage
1,A94G U131A,0.74
2,A27G U72C,0.38
3,A23U A96G,1.59
4,A30G U37G,1.08
5,G28A U131C,0.99
6,A94U A96G,1.29
7,A4G A52U,0.92
8,A118G G137A,0.86
9,U19C A62C,1.65
10,U57C A82G,0.49
11,A22U A96U,1.54
12,A110G A140C,0.14
13,A23G A69G,0.91
14,A60G A69U,1.67
15,U72A A90G,0.18
16,A22G A116U,0.35
17,A36C A135G,2.33
18,G7A G74U,0.2
19,A60G A95U,0.97
20,G79A U127C,0.06
21,U19A U120G,1.35
22,U70C U97C,0.68
23,A78U U127A,0.8
24,A69G G75C,0.16

row,Variant,self-cleavage
1,A60U A117U,1.11
2,C6G U100C,0.97
3,U12A U122C,1.26
4,U43A A98C,1.91
5,A64G A89G,1.49
6,U70C U108A,0.03
7,C40U A95G,1.96
8,U57C A94G,1.62
9,A86G A90G,1.13
10,C10U A55G,0.52
11,A13C U127C,0.65
12,U9C A89U,1.25
13,A18G G93U,2.69
14,A60G,1.14
15,A64C A96G,1.27
16,A52G A96G,1.64
17,U127C,0.68
18,A56C A59G,1.51
19,U70C U100A,0.18
20,U3C A68C,1.6
21,U38A U130C,1.47
22,A78C A96G,0.27
23,A54U G74U,0.02
